We go through four molecules from patent US20180311291A1 (PSIOXUS THERAPEUTICS, published 2018).

The target of test [1] is T1, human VEGF-165 (human, UniProt P15692-4 27-191). Kind of test: direct VEGF binding ELISA and competition ELISA with bevacizumab, HRP anti-His detection; 293F supernatant and lysate.
Procedure: The cells and media were harvested from the flask and the supernatant and cells were separated by centrifuging for 10 mins, 1000 rpm. The supernatant was collected and the remaining cell pellet resuspended in 1 ml of cell media before carrying out 3 freeze-thaw cycles to lyse the cells. Post-lysis the cell debris and media was separated by a second centrifugation step and the supernatant from the lysate was collected. The supernatants or lysates were diluted 1 in 2 in 3% BSA/PBS 0.05% tween. […] Samples were added to the plates at 100 μl/well and incubated for 1 hr VEGF bound ScFv was detected using HRP-conjugated polyclonal anti-His (Abcam ab1187) followed by TMB detection.
Test [2] addresses T1, human VEGF-165. Kind of test: VEGF binding ELISA, HRP anti-His detection.
Procedure: Plates were washed between all subsequent binding steps with PBS 0.05% Tween 20. The plates were blocked for 1 hour at room temperature with 3% BSA in PBS 0.05% Tween 20.
AD293 cells were seeded in 6 well culture plates at a density of 5e5 cells per well. […] Cells were cultured for 72 hrs before the supernatants were collected from the wells and centrifuged for 5 mins, 1200 rpm to remove cell debris. The clarified supernatants were then used for either VEGF binding ELISA or Western blot analysis. […] Samples were added to the plates at 100 μl/well and assay. The detection antibody, HRP conjugated polyclonal anti-His (Abcam ab1187) was then applied for 1 hr at room temperature before HRP detection was performed with HRP substrate solution 3.3.5.5′-teramethylethylenediamine (TMB, Thermo-Fisher). 1M HCl was used for stopping the reaction and the developed colour was measured at 450 nm on a plate reader.
A further test has as its target T2, recombinant CTLA4-Fc (UniProt P16410 37-162).
T2 construct: also called CTLA4-Fc (R&D Systems, 325-CT-200); not shown: Fc part of the bought fusion protein
Kind of test: direct CTLA-4 binding ELISA on CTLA4-Fc coated plates; supernatant diluted 1 in 2 to 1 in 2048.

The target of the next test is T3, recombinant PDL1-Fc (UniProt Q9NZQ7 19-239).
T3 construct: also called PDL1-Fc (R&D Systems, 156-B7-100); not shown: Fc part of the bought fusion protein
T3 sequence (Q9NZQ7 19-239 limits assumed): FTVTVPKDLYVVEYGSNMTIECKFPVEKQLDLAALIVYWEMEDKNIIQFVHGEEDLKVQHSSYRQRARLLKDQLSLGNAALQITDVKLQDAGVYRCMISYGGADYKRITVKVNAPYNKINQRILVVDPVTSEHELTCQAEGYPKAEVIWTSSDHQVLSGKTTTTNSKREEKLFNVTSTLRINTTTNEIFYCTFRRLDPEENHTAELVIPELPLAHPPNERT
Nature of the test: direct PD-L1 binding ELISA on PDL1-Fc coated plates; 10-fold concentrated supernatant diluted 1 in 2 to 1 in 2048; anti-kappa light chain detection.

For test [3], the target named is T4, non-recombinant PD-L1 ligand expressed in a membrane environment on the surface of lung carcinoma cells (A549) (human, UniProt Q9NZQ7 19-290).
T4 construct: whole, on cells; also called cellular PD-L1; PD-L1 on IFNg stimulated A549 cells
T4 sequence (Q9NZQ7 19-290): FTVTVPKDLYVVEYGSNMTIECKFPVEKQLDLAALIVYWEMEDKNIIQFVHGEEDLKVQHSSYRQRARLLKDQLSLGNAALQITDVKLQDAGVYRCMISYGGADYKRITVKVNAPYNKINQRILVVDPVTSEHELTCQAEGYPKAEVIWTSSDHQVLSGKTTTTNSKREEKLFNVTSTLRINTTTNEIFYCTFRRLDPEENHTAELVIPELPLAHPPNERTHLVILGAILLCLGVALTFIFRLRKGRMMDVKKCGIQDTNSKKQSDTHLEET
Kind of test: flow cytometry on A549 cells with or without IFNgamma stimulation; 50 ul concentrated supernatant; Alexa-fluor 488 anti-human IgG detection.
Procedure: A549 cells were either stimulated with 50 ng/ml human IFNγ to promote upregulation of PD-L1 expression on the cell surface or left unstimulated. […] The cells were washed again, resuspended in PBS/1% BSA and analysed with an Attune acoustic focusing cytometer (Life Technologies).

T1 sequence (P15692 other isoform, or with tags, fused parts or gaps limits assumed): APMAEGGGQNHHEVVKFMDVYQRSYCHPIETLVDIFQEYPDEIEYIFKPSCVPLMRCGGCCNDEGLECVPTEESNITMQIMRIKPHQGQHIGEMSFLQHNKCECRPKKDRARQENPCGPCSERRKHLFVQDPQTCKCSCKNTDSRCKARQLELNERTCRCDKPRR
T2 sequence (P16410 37-162 limits assumed): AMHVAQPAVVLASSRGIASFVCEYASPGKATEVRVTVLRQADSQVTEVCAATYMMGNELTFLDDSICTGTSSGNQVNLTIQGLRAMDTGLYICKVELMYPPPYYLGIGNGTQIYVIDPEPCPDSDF
Procedure for recombinant CTLA4-Fc: Culture supernatants were harvested and concentrated at 300 g for 5 minutes to remove cell debris. […] Plates were washed three times with PBS/0.05% Tween 20 then blocked with PBS/3% BSA/0.05% Tween 20.

B1: anti-VEGF ScFv with C-terminal His6 tag expressed from NG-78 infected cells (scFv)
scFv: EVQLVESGGGLVQPGGSLRLSCAASGYTFTNYGMNWVRQAPGKGLEWVGWINTYTGEPTYAADFKRRFTFSLDTSKSTAYLQMNSLRAEDTAVYYCAKYPHYYGSSHWYFDVWGQGTLVTVSSGGGGSGGGGSGGGGSDIQMTQSPSSLSASVGDRVTITCSASQDISNYLNWYQQKPGKAPKVLIYFTSSLHSGVPSRFSGSGSGTDFTLTISSLQPEDFATYYCQQYSTVPWTFGQGTKVEIKRHHHHHH
notes: also called NG-78 anti-VEGF ScFv
On to B1, for which the binding result with human VEGF-165 [1] is reported as “binds”.

B2: anti-VEGF ScFv with C-terminal His6 tag expressed from NG-76 infected cells (scFv)
scFv: B1 scFv
notes: also called NG-76 anti-VEGF ScFv
B2: the binding result with human VEGF-165 [2] was “binds”.

B3: anti-VEGF full length IgG1 antibody secreted from NG-165 infected cells (antibody, V domains shown)
VH: EVQLVESGGGLVQPGGSLRLSCAASGYTFTNYGMNWVRQAPGKGLEWVGWINTYTGEPTYAADFKRRFTFSLDTSKSTAYLQMNSLRAEDTAVYYCAKYPHYYGSSHWYFDVWGQGTLVTVSS
VL: DIQMTQSPSSLSASVGDRVTITCSASQDISNYLNWYQQKPGKAPKVLIYFTSSLHSGVPSRFSGSGSGTDFTLTISSLQPEDFATYYCQQYSTVPWTFGQGTKVEIKR
Regarding B3, the binding result with recombinant CTLA4-Fc and in the test with recombinant PDL1-Fc was “no binding” each time.

B4: anti-VEGF full length antibody (human IgG1) secreted from NG-135 infected cells (antibody, V domains shown)
VH: B3 VH
VL: B3 VL
notes: also called SSA-Bev-PA
With B4, the binding result in test [3] was “no binding”.
